{"source": "patent US20130108549A1", "about": "(ADLYFE, published 2013)", "biological_target": "T1, Aβ42 oligomers (Homo sapiens (Human), UniProt P05067 672-713)", "T1 construct": "also called oligomers of Aβ42 (including dimers, trimers, tetramers, hexamers and 12-mers); oligomeric forms of Aβ42", "T1 sequence (P05067 672-713 limits assumed)": "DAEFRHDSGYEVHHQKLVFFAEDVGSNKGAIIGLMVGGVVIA", "experiment": "pyrene excimer fluorescence, excitation 350 nm, scan 360-600 nm", "note": "pyrene = pyrene fluorescent label", "data": [{"binder": "pyrene-KLVFFAEDVGSNKGAIIGLM-pyrene (also called Aβ peptide probe; dipyrene labeled peptide probe)", "note": "[Peptide probe specific for Aβ (SEQ ID NO:36) labeled at each terminus with pyrene]", "values": [{"measurement": "binding result", "value": "binds"}]}]}
